Measured values reported in PMC5607582.

Molecular target: trimeric H5-S·Tag (ectodomain of H5 hemagglutinin of A/duck/Viet Nam/TG24-01/2005 (H5N1) fused to GCN4-pII and S·Tag) (influenza A virus A/duck/Viet Nam/TG24-01/2005 (H5N1) | not stated | bovine)

S·Protein-GCN4 (S·Protein fused to the dimerization domain GCN4 wild-type) (from UniProt P61823 47-150)
hemagglutination titer (HAU) of plant extract after co-expression in plants: 2 HAU

wild-type S·Protein (bovine pancreatic ribonuclease A residues 21-124) (from UniProt P61823 47-150) (domain or fragment)
hemagglutination titer (HAU) of plant extract after co-expression in plants: 4 HAU

S·Protein-pII (S·Protein fused to the trimerization domain GCN4-pII) (from UniProt P61823 47-150)
hemagglutination titer (HAU) of plant extract after co-expression in plants: 0 HAU

S·Protein-TP (S·Protein of bovine ribonuclease A fused to the tailpiece of mouse IgM) (from UniProt P61823 47-150)
hemagglutination titer (HAU) of plant extract after co-expression in plants: 256 HAU
